± gives the uncertainty stated by the source.
Assay: abundance fitness (aPCA) (normalised: wild type 0, dead -1); higher = more abundant; growth selection in yeast, the domain comes from the species named
Details: Homo sapiens

Substance | abundance fitness
E3 ubiquitin-protein ligase NEDD4-like S230P, Q96PU5 | -0.027 ± 0.085
E3 ubiquitin-protein ligase NEDD4-like S230Q, Q96PU5 | 0.025 ± 0.077
E3 ubiquitin-protein ligase NEDD4-like S230R, Q96PU5 | -0.095 ± 0.066
E3 ubiquitin-protein ligase NEDD4-like S230T, Q96PU5 | -0.051 ± 0.067
E3 ubiquitin-protein ligase NEDD4-like S230V, Q96PU5 | -0.136 ± 0.059
E3 ubiquitin-protein ligase NEDD4-like S230W, Q96PU5 | -0.496 ± 0.085
E3 ubiquitin-protein ligase NEDD4-like S230Y, Q96PU5 | -0.204 ± 0.12
E3 ubiquitin-protein ligase NEDD4-like S231A, Q96PU5 | -0.099 ± 0.075
E3 ubiquitin-protein ligase NEDD4-like S231C, Q96PU5 | -0.142 ± 0.09
E3 ubiquitin-protein ligase NEDD4-like S231D, Q96PU5 | -0.425 ± 0.11
E3 ubiquitin-protein ligase NEDD4-like S231E, Q96PU5 | 0.134 ± 0.089
E3 ubiquitin-protein ligase NEDD4-like S231F, Q96PU5 | -0.275 ± 0.11
E3 ubiquitin-protein ligase NEDD4-like S231G, Q96PU5 | -0.049 ± 0.064
E3 ubiquitin-protein ligase NEDD4-like S231H, Q96PU5 | -0.331 ± 0.13
E3 ubiquitin-protein ligase NEDD4-like S231I, Q96PU5 | 0.087 ± 0.12
E3 ubiquitin-protein ligase NEDD4-like S231K, Q96PU5 | -0.273 ± 0.15
E3 ubiquitin-protein ligase NEDD4-like S231L, Q96PU5 | 0.002 ± 0.088
E3 ubiquitin-protein ligase NEDD4-like S231M, Q96PU5 | -0.222 ± 0.08
E3 ubiquitin-protein ligase NEDD4-like S231N, Q96PU5 | -0.385 ± 0.12

Substance | abundance fitness
E3 ubiquitin-protein ligase NEDD4-like S231P, Q96PU5 | -0.008 ± 0.08
E3 ubiquitin-protein ligase NEDD4-like S231Q, Q96PU5 | 0.242 ± 0.14
E3 ubiquitin-protein ligase NEDD4-like S231R, Q96PU5 | 0.002 ± 0.074
E3 ubiquitin-protein ligase NEDD4-like S231T, Q96PU5 | 0.139 ± 0.098
E3 ubiquitin-protein ligase NEDD4-like S231V, Q96PU5 | -0.062 ± 0.067
E3 ubiquitin-protein ligase NEDD4-like S231Y, Q96PU5 | -0.228 ± 0.11
E3 ubiquitin-protein ligase NEDD4-like T209C, Q96PU5 | -0.146 ± 0.067
E3 ubiquitin-protein ligase NEDD4-like T209D, Q96PU5 | -0.311 ± 0.072
E3 ubiquitin-protein ligase NEDD4-like T209E, Q96PU5 | -0.31 ± 0.078
E3 ubiquitin-protein ligase NEDD4-like T209F, Q96PU5 | -0.325 ± 0.083
E3 ubiquitin-protein ligase NEDD4-like T209G, Q96PU5 | -0.305 ± 0.062
E3 ubiquitin-protein ligase NEDD4-like T209H, Q96PU5 | -0.32 ± 0.11
E3 ubiquitin-protein ligase NEDD4-like T209I, Q96PU5 | -0.036 ± 0.088
E3 ubiquitin-protein ligase NEDD4-like T209L, Q96PU5 | -0.095 ± 0.073
E3 ubiquitin-protein ligase NEDD4-like T209M, Q96PU5 | -0.093 ± 0.1
E3 ubiquitin-protein ligase NEDD4-like T209N, Q96PU5 | -0.095 ± 0.092
E3 ubiquitin-protein ligase NEDD4-like T209P, Q96PU5 | -0.002 ± 0.059
E3 ubiquitin-protein ligase NEDD4-like T209Q, Q96PU5 | -0.21 ± 0.095
E3 ubiquitin-protein ligase NEDD4-like T209R, Q96PU5 | -0.096 ± 0.058

— the Human Domainome abundance scans (Beltran et al. 2025)
